Data on 7 molecules can be found in paper PMC12361432.

One experiment addresses CCR9 F299A (human). The experiment in a line: flow cytometry on cells; TAMRA-labeled chemokine (four concentrations, highest 300 nM used to compare mutants) incubated 1 h with HEK293T cells expressing WT or mutant CCR9 in FACS buffer (1x PBS, 1 mM EDTA, 1% BSA); median fluorescence; nonspecific binding on parental HEK293T cells; binding ratios mutant:WT. Background: A flow cytometer gives signals particle by particle.

The target of a further experiment is CCR9 Y126A (human). Described as above.
The target in experiment [1] is T1, TAMRA-labeled CCL25 (CCL25(1-73), norleucine 64, C-terminal azidolysine coupled to TAMRA-PEG4-DBCO).
T1 chain: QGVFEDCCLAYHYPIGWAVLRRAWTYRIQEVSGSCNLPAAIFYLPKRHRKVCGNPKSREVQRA
Briefly: flow cytometry on cells. Particulars: chain shown with the change; 300 nM TAMRA-CCL25; HEK293T cells; read off a plot.

Numbering of substitutions follows the chain as printed. Names may count otherwise.

In the case of “TAMRA-labeled CCL25 (CCL25(1-73), norleucine 64, C-terminal azidolysine coupled to TAMRA-PEG4-DBCO) (ligand)”, the CCL25-induced Ca^2+ mobilization in HEK293T cells expressing the CCR9 mutant, area under the concentration-response curve against WT (CCL25 without dye) with CCR9 K211A (human), with CCR9 K40A (human), with CCR9 R44A (human) and with CCR9 Y202A (human) was under 15% each time. In addition, the figures for the CCL25-induced Ca^2+ response in HEK293T cells expressing the CCR9 mutant, percent of WT output (CCL25 without dye) with CCR9 D296A (human) and with CCR9 S292A (human) were 15% and 48%, respectively. Also, the fold change in binding against WT CCR9 with CCR9 F299A (human) is 2.2 fold; with CCR9 Y126A (human), 2.5 fold.

B1: C-C chemokine receptor 9 (CCR9), wild type Y202A (protein)
chain: MTPTDFTSPIPNMADDYGSESTSSMEDYVNFNFTDFYCEKNNVRQFASHFLPPLYWLVFIVGALGNSLVILVYWYCTRVKTMTDMFLLNLAIADLLFLVTLPFWAIAAADQWKFQTFMCKVVNSMYKMNFYSCVLLIMCISVDRYIAIAQAMRAHTWREKRLLYSKMVCFTIWVLAAALCIPEILYSQIKEESGIAICTMVAPSDESTKLKSAVLTLKVILGFFLPFVVMACCYTIIIHTLIQAKKSSKHKALKVTITVLTVFVLSQFPYNCILLVQTIDAYAMFISNCAVSTNIDICFQVTQTIAFFHSCLNPVLYVFVGERFRRDLVKTLKNLGCISQAQWVSFTRREGSLKLSSMLLETTSGALSL
Turning to B1, the ratio to parent in experiment [1] came to 0.73.

B2: C-C chemokine receptor 9 (CCR9), wild type D296A (protein)
chain: B1 chain with A202Y, D296A
Take B2: in experiment [1], the ratio to parent is 0.81.

B3: C-C chemokine receptor 9 (CCR9), wild type R44A (protein)
chain: B1 chain with R44A, A202Y
On to B3, for which, in experiment [1], the ratio to parent amounted to 0.61.

B4: C-C chemokine receptor 9 (CCR9), wild type S292A (protein)
chain: B1 chain with A202Y, S292A
As for B4, the ratio to parent in [1] was found to be 0.66.

B5: C-C chemokine receptor 9 (CCR9), wild type K40A (protein)
chain: B1 chain with K40A, A202Y
B5: the ratio to parent in experiment [1] was found to be 0.83.

B6: C-C chemokine receptor 9 (CCR9), wild type K211A (protein)
chain: B1 chain with A202Y, K211A
In the case of B6, in experiment [1], the ratio to parent worked out at 1.1.
